{"source": "paper PMC4838380", "about": "(Nucleic Acids Research, 2016)", "proteins": {"B1": {"name": "Endonuclease MS from Thermococcus kodakarensis (TkoEndoMS), protein encoded by TK1898 (enzyme, UniProt Q5JER9 1-252, looked up)", "chain": "MSKDKVTVITSPSTEELVSLVNSALLEEAMLTIFARCKVHYDGRAKSELGSGDRVIIVKPDGSFLIHQSKKREPVNWQPPGSRVRLELRENPVLVSIRRKPRETLEVELEEVYMVSVFRAEDYEELALTGSEAEMAELIFENPEVIEPGFKPLFREKAIGTGIVDVLGRDSDGNIVVLELKRRRAELHAVRQLKSYVEILREEYGDKVRGILVAPSLTSGAKRLLEKEGLEFRKLEPPKRDSKKKGRQKTLF"}}, "molecular_target": "the molecule itself", "assay": "SEC", "data": [{"protein": "B1", "values": [{"measurement": "stoichiometry N", "value": 2}]}]}
